The text below walks through data of publication PMC8567228 (EMBO Reports, 2021).

Series [1] deals with T1, Rab8a phosphorylated at Thr72 (pRab8a) (human), P61006.
T1 chain: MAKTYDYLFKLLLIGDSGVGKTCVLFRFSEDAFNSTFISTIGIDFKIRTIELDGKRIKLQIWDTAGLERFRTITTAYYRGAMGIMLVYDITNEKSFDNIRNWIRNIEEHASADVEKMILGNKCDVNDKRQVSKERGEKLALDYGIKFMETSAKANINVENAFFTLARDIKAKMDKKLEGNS
The experiment in a line: cross-linking; DSBU 9.375 mM, 10 min at RT; 35 µM Rab8a and 28 µM PPM1H pre-incubated 1 h at 30°C in 40 mM HEPES pH 7.5, 150 mM NaCl, 2 mM MgCl2; SDS-PAGE, bands digested and read by LC MS/MS.

Series [2] concerns the molecule itself. Description: crystal structure; vapour diffusion crystals, space group P212121, two molecules of PPM1H in the asymmetric unit; with Mg2+ (7kpr, 7l4j, 7l4i) or Mn2+ (7n0z).
The target in series [3] is T2, pThr73-Rab10 switch 2 phosphopeptide (human).
T2 sequence (peptide, phosphothreonine (T*) at Thr73): AGQERFHTITTSYYR

For series [4], the target named is Rab8a phosphorylated at Thr72 (pRab8a) (human) (UniProt P61006).
The target of series [5] is T3, pThr72-Rab8a switch 2 phosphopeptide (residues 65-79) (human).
T3 sequence (peptide, phosphothreonine (T*) at Thr72): AGQERFRTITTAYYR

Series [6] concerns the molecule itself. Description: SEC-MALS; His6-tagged proteins injected at 2 mg/ml (100 μl) into a Superdex 200 column; DAWN Heleos and Optilab TrEX detectors.

B1: Recombinant PPM1H[D288A] used for DSBU cross-linking, Q9ULR3 1-514 (enzyme)
chain: SDLPLRFPYGRPEFLGLSQDEVECSADHIARPILILKETRRLPWATGYAEVINAGKSTHNEDQASCEVLTVKKKAGAVTSTPNRNSSKRRSSLPNGEGLQLKENSESEGVSCHYWSLFDGHAGSGAAVVASRLLQHHITEQLQDIVDILKNSAVLPPTCLGEEPENTPANSRTLTRAASLRGGVGAPGSPSTPPTRFFTEKKIPHECLVIGALESAFKEMDLQIERERSSYNISGGCTALIVICLLGKLYVANAGASRAIIIRNGEIIPMSSEFTPETERQRLQYLAFMQPHLLGNEFTHLEFPRRVQRKELGKKMLYRDFNMTGWAYKTIEDEDLKFPLIYGEGKKARVMATIGVTRGLGDHDLKVHDSNIYIKPFLSSAPEVRIYDLSKYDHGSDDVLILATDGLWDVLSNEEVAEAITQFLPNCDPDDPHRYTLAAQDLVMRARGVLKDRGWRISNDRLGSGDDISVYVIPLIHGNKLS
modifications: not checked
B1: the stoichiometry N (PPM1H per pRab8a (2:2)) in series [1] is 1.

B2: PPM1H^DA (residues 33-514, D288A), crystallised form (enzyme, human, UniProt Q9ULR3 33-514, looked up)
chain: SDLPLRFPYGRPEFLGLSQDEVECSADHIARPILILKETRRLPWATGYAEVINAGKSTHNEDQASCEVLTVKKKAGAVTSTPNRNSSKRRSSLPNGEGLQLKENSESEGVSCHYWSLFDGHAGSGAAVVASRLLQHHITEQLQDIVDILKNSAVLPPTCLGEEPENTPANSRTLTRAASLRGGVGAPGSPSTPPTRFFTEKKIPHECLVIGALESAFKEMDLQIERERSSYNISGGCTALIVICLLGKLYVANAGASRAIIIRNGEIIPMSSEFTPETERQRLQYLAFMQPHLLGNEFTHLEFPRRVQRKELGKKMLYRDFNMTGWAYKTIEDEDLKFPLIYGEGKKARVMATIGVTRGLGDHDLKVHDSNIYIKPFLSSAPEVRIYDLSKYDHGSDDVLILATDGLWDVLSNEEVAEAITQFLPNCDPDDPHRYTLAAQDLVMRARGVLKDRGWRISNDRLGSGDDISVYVIPLIHGNKLS
notes: PPM1H phosphatase, human, residues 33-514 with D288A (substrate-trapping mutant); Two molecules in the asymmetric unit; two Mg2+ ions at the active site; also called pNIC28-Bsa4-PPM1H^33-514 D288A; source: E. coli, purified (nickel agarose, TEV cleavage, second Ni column, Superdex 200)
For B2, the binding result in series [2] is “binds”.

B3: His6-SUMO-PPM1H[K88A], full length (enzyme)
chain: MLTRVKSAVANFMGGIMAGSSGSEHGGGSCGGSDLPLRFPYGRPEFLGLSQDEVECSADHIARPILILKETRRLPWATGYAEVINAGASTHNEDQASCEVLTVKKKAGAVTSTPNRNSSKRRSSLPNGEGLQLKENSESEGVSCHYWSLFDGHAGSGAAVVASRLLQHHITEQLQDIVDILKNSAVLPPTCLGEEPENTPANSRTLTRAASLRGGVGAPGSPSTPPTRFFTEKKIPHECLVIGALESAFKEMDLQIERERSSYNISGGCTALIVICLLGKLYVANAGDSRAIIIRNGEIIPMSSEFTPETERQRLQYLAFMQPHLLGNEFTHLEFPRRVQRKELGKKMLYRDFNMTGWAYKTIEDEDLKFPLIYGEGKKARVMATIGVTRGLGDHDLKVHDSNIYIKPFLSSAPEVRIYDLSKYDHGSDDVLILATDGLWDVLSNEEVAEAITQFLPNCDPDDPHRYTLAAQDLVMRARGVLKDRGWRISNDRLGSGDDISVYVIPLIHGNKLS
With B3, the initial rate of phosphate release (malachite green time course), 32 μM pThr73-Rab10 peptide, against wild-type PPM1H (fold reduction) in series [3] was > 20. For the same molecule, the initial rate of phosphate release (malachite green time course), 16 μM pThr72-Rab8a protein (GTPγS), against wild-type PPM1H (fold reduction) in series [4] was > 20. Also, in series [5], the initial rate of phosphate release (malachite green time course), 32 μM pThr72-Rab8a peptide, against wild-type PPM1H (fold reduction) was > 20.

B4: His6-SUMO-PPM1H[R338A], full length (enzyme)
chain: MLTRVKSAVANFMGGIMAGSSGSEHGGGSCGGSDLPLRFPYGRPEFLGLSQDEVECSADHIARPILILKETRRLPWATGYAEVINAGKSTHNEDQASCEVLTVKKKAGAVTSTPNRNSSKRRSSLPNGEGLQLKENSESEGVSCHYWSLFDGHAGSGAAVVASRLLQHHITEQLQDIVDILKNSAVLPPTCLGEEPENTPANSRTLTRAASLRGGVGAPGSPSTPPTRFFTEKKIPHECLVIGALESAFKEMDLQIERERSSYNISGGCTALIVICLLGKLYVANAGDSRAIIIRNGEIIPMSSEFTPETERQRLQYLAFMQPHLLGNEFTHLEFPRAVQRKELGKKMLYRDFNMTGWAYKTIEDEDLKFPLIYGEGKKARVMATIGVTRGLGDHDLKVHDSNIYIKPFLSSAPEVRIYDLSKYDHGSDDVLILATDGLWDVLSNEEVAEAITQFLPNCDPDDPHRYTLAAQDLVMRARGVLKDRGWRISNDRLGSGDDISVYVIPLIHGNKLS
Turning to B4, the initial activity of phosphate release (malachite green time course), 16 μM pThr72-Rab8a protein (GTPγS), against wild-type PPM1H (fold reduction) in series [4] came out at 2.

B5: PPM1H^DA-LD (residues 33-514, D288A, loop 188-226 replaced by GSGS, C56A), crystallised form (enzyme, human)
chain: SDLPLRFPYGRPEFLGLSQDEVEASADHIARPILILKETRRLPWATGYAEVINAGKSTHNEDQASCEVLTVKKKAGAVTSTPNRNSSKRRSSLPNGEGLQLKENSESEGVSCHYWSLFDGHAGSGAAVVASRLLQHHITEQLQDIVDILKNSAVLGSGSTRFFTEKKIPHECLVIGALESAFKEMDLQIERERSSYNISGGCTALIVICLLGKLYVANAGASRAIIIRNGEIIPMSSEFTPETERQRLQYLAFMQPHLLGNEFTHLEFPRRVQRKELGKKMLYRDFNMTGWAYKTIEDEDLKFPLIYGEGKKARVMATIGVTRGLGDHDLKVHDSNIYIKPFLSSAPEVRIYDLSKYDHGSDDVLILATDGLWDVLSNEEVAEAITQFLPNCDPDDPHRYTLAAQDLVMRARGVLKDRGWRISNDRLGSGDDISVYVIPLIHGNKLS
notes: PPM1H phosphatase, human, residues 33-187 with C56A; short linker that replaces the loop 188-226; PPM1H phosphatase, human, residues 227-514 with D288A; also called pET28a(+)-PPM1H^D288A LoopDEL; source: E. coli, purified (nickel agarose, TEV cleavage, second Ni column, Superdex 200); not shown: His6, N-terminal, cleaved
With B5, the binding result in series [2] is recorded as “binds”.

B6: His6-tagged PPM1H^WT-LD (residues 33-514, loop 188-226 replaced by GSGS, C56A) (enzyme, human)
chain: SDLPLRFPYGRPEFLGLSQDEVEASADHIARPILILKETRRLPWATGYAEVINAGKSTHNEDQASCEVLTVKKKAGAVTSTPNRNSSKRRSSLPNGEGLQLKENSESEGVSCHYWSLFDGHAGSGAAVVASRLLQHHITEQLQDIVDILKNSAVLGSGSTRFFTEKKIPHECLVIGALESAFKEMDLQIERERSSYNISGGCTALIVICLLGKLYVANAGDSRAIIIRNGEIIPMSSEFTPETERQRLQYLAFMQPHLLGNEFTHLEFPRRVQRKELGKKMLYRDFNMTGWAYKTIEDEDLKFPLIYGEGKKARVMATIGVTRGLGDHDLKVHDSNIYIKPFLSSAPEVRIYDLSKYDHGSDDVLILATDGLWDVLSNEEVAEAITQFLPNCDPDDPHRYTLAAQDLVMRARGVLKDRGWRISNDRLGSGDDISVYVIPLIHGNKLS
notes: PPM1H phosphatase, human, residues 33-187 with C56A; short linker that replaces the loop 188-226; PPM1H phosphatase, human, residues 227-514; Same construct as m2 but with the His6 tag kept for SEC-MALS (calculated about 52.1 kDa); source: E. coli, purified (Ni-agarose, Superdex 200); not shown: His6, N-terminal, kept
Usually stoichiometry N stands for the number of molecules, sites or subunits per partner or assembly. On to B6, for which, in series [6], the “stoichiometry N” value was found to be 2.
